Experimental data published in patent US20240270846A1 (published 2024).
Positions count from the first letter of the chain named. Numbers in names are those of the source.

B1: GLS3000 N53R one-arm antibody (antibody, human IgG1, kappa, L234A L235A, N297A, name in Kabat numbering)
light: DIVMTQSPLSLPVTPGEPASISCRSSQSLVHSNRNTYLHWYQQKPGQAPRLLIYKVSRRFSGVPDRFSGSGSGTDFTLKISRVEAEDVGVYYCGQGTQVPYTFGQGTKLEIKRTVAAPSVFIFPPSDEQLKSGTASVVCLLNNFYPREAKVQWKVDNALQSGNSQESVTEQDSKDSTYSLSSTLTLSKADYEKHKVYACEVTHQGLSSPVTKSFNRGEC
heavy: QVQLVESGGGVVQPGRSLRLSCAASGFTFSNAWMHWVRQAPGKGLEWVAQIKAKSNNYATYYAESVKGRFTISRDDSKNSLYLQMNSLKTEDTAVYYCRYVHYGAYYGVDAWGQGTTVTVSSASTKGPSVFPLAPSSKSTSGGTAALGCLVKDYFPEPVTVSWNSGALTSGVHTFPAVLQSSGLYSLSSVVTVPSSSLGTQTYICNVNHKPSNTKVDKKVEPKSCDKTHTCPPCPAPEAAGGPSVFLFPPKPKDTLMISRTPEVTCVVVDVSHEDPEVKFNWYVDGVEVHNAKTKPREEQYASTYRVVSVLTVLHQDWLNGKEYKCKVSNKALPAPIEKTISKAKGQPREPQVYTLPPSRCELTKNQVSLSCAVKGFYPSDIAVEWESNGQPENNYKTTPPVLDSDGSFFLVSKLTVDKSRWQQGNVFSCSVMHEALHNHYTQKSLSLSPDYKDDDDK
chain: EPKSSDKTHTCPPCPAPELLGGPSVFLFPPKPKDTLMISRTPEVTCVVVDVSHEDPEVKFNWYVDGVEVHNAKTKPREEQYNSTYRVVSVLTVLHQDWLNGKEYKCKVSNKALPAPIEKTISKAKGQPREPQVCTLPPSRDELTKNQVSLWCLVKGFYPSDIAVEWESNGQPENNYKTTPPVLDSDGSFFLYSKLTVDKSRWQQGNVFSCSVMHEALHNRYTQKSLSLSP
B2: GLS3000 R54G one-arm antibody (antibody, human IgG1, kappa, L234A L235A, N297A, name in Kabat numbering)
light: B1 light with R58N, R59G
heavy: B1 heavy
chain: B1 chain
B3: GLS3000 Q93S one-arm antibody (antibody, human IgG1, kappa, L234A L235A, N297A, name in Kabat numbering)
light: B1 light with R58N, Q98S
heavy: B1 heavy
chain: B1 chain
B4: GLS3000 R54W one-arm antibody (antibody, human IgG1, kappa, L234A L235A, N297A, name in Kabat numbering)
light: B1 light with R58N, R59W
heavy: B1 heavy
chain: B1 chain
B5: GLS3000 P95S one-arm antibody (antibody, human IgG1, kappa, L234A L235A, N297A, name in Kabat numbering)
light: B1 light with R58N, P100S
heavy: B1 heavy
chain: B1 chain
B6: GLS3000 R77S one-arm antibody (antibody, human IgG1, kappa, L234A L235A, N297A, name in Kabat numbering)
light: B1 light with R58N, R82S
heavy: B1 heavy
chain: B1 chain
B7: GLS3000 Q90S one-arm antibody (antibody, human IgG1, kappa, L234A L235A, N297A, name in Kabat numbering)
light: B1 light with R58N, Q95S
heavy: B1 heavy
chain: B1 chain
B8: GLS3000 Q90A one-arm antibody (antibody, human IgG1, kappa, L234A L235A, N297A, name in Kabat numbering)
light: B1 light with R58N, Q95A
heavy: B1 heavy
chain: B1 chain
B9: GLS3000 R54P one-arm antibody (antibody, human IgG1, kappa, L234A L235A, N297A, name in Kabat numbering)
light: B1 light with R58N, R59P
heavy: B1 heavy
chain: B1 chain
B10: GLS3000 P95A one-arm antibody (antibody, human IgG1, kappa, L234A L235A, N297A, name in Kabat numbering)
light: B1 light with R58N, P100A
heavy: B1 heavy
chain: B1 chain
B11: GLS3000 Q93A one-arm antibody (antibody, human IgG1, kappa, L234A L235A, N297A, name in Kabat numbering)
light: B1 light with R58N, Q98A
heavy: B1 heavy
chain: B1 chain
B12: GLS3000 N53V one-arm antibody (antibody, human IgG1, kappa, L234A L235A, N297A, name in Kabat numbering)
light: B1 light with R58V
heavy: B1 heavy
chain: B1 chain
B13: GLS3000 S52P one-arm antibody (antibody, human IgG1, kappa, L234A L235A, N297A, name in Kabat numbering)
light: B1 light with S57P, R58N
heavy: B1 heavy
chain: B1 chain
B14: GLS3000 R54S one-arm antibody (antibody, human IgG1, kappa, L234A L235A, N297A, name in Kabat numbering)
light: B1 light with R58N, R59S
heavy: B1 heavy
chain: B1 chain
B15: GLS3000 Q90D one-arm antibody (antibody, human IgG1, kappa, L234A L235A, N297A, name in Kabat numbering)
light: B1 light with R58N, Q95D
heavy: B1 heavy
chain: B1 chain
B16: GLS3000 N53Y one-arm antibody (antibody, human IgG1, kappa, L234A L235A, N297A, name in Kabat numbering)
light: B1 light with R58Y
heavy: B1 heavy
chain: B1 chain
B17: GLS3000 P95D one-arm antibody (antibody, human IgG1, kappa, L234A L235A, N297A, name in Kabat numbering)
light: B1 light with R58N, P100D
heavy: B1 heavy
chain: B1 chain
B18: GLS3000 P95E one-arm antibody (antibody, human IgG1, kappa, L234A L235A, N297A, name in Kabat numbering)
light: B1 light with R58N, P100E
heavy: B1 heavy
chain: B1 chain
B19: GLS3000 R54E one-arm antibody (antibody, human IgG1, kappa, L234A L235A, N297A, name in Kabat numbering)
light: B1 light with R58N, R59E
heavy: B1 heavy
chain: B1 chain
B20: GLS3000 Q93E one-arm antibody (antibody, human IgG1, kappa, L234A L235A, N297A, name in Kabat numbering)
light: B1 light with R58N, Q98E
heavy: B1 heavy
chain: B1 chain
B21: GLS3000 Q90P one-arm antibody (antibody, human IgG1, kappa, L234A L235A, N297A, name in Kabat numbering)
light: B1 light with R58N, Q95P
heavy: B1 heavy
chain: B1 chain
B22: GLS3000 P95L one-arm antibody (antibody, human IgG1, kappa, L234A L235A, N297A, name in Kabat numbering)
light: B1 light with R58N, P100L
heavy: B1 heavy
chain: B1 chain
B23: GLS3000 N53W one-arm antibody (antibody, human IgG1, kappa, L234A L235A, N297A, name in Kabat numbering)
light: B1 light with R58W
heavy: B1 heavy
chain: B1 chain
B24: GLS3000 S52Q one-arm antibody (antibody, human IgG1, kappa, L234A L235A, N297A, name in Kabat numbering)
light: B1 light with S57Q, R58N
heavy: B1 heavy
chain: B1 chain
B25: GLS3000 R54T one-arm antibody (antibody, human IgG1, kappa, L234A L235A, N297A, name in Kabat numbering)
light: B1 light with R58N, R59T
heavy: B1 heavy
chain: B1 chain
B26: GLS3000 N53S one-arm antibody (antibody, human IgG1, kappa, L234A L235A, N297A, name in Kabat numbering)
light: B1 light with R58S
heavy: B1 heavy
chain: B1 chain
B27: GLS3000 Q93P one-arm antibody (antibody, human IgG1, kappa, L234A L235A, N297A, name in Kabat numbering)
light: B1 light with R58N, Q98P
heavy: B1 heavy
chain: B1 chain
B28: GLS3000 Q93D one-arm antibody (antibody, human IgG1, kappa, L234A L235A, N297A, name in Kabat numbering)
light: B1 light with R58N, Q98D
heavy: B1 heavy
chain: B1 chain
B29: GLS3000 Q93R one-arm antibody (antibody, human IgG1, kappa, L234A L235A, N297A, name in Kabat numbering)
light: B1 light with R58N, Q98R
heavy: B1 heavy
chain: B1 chain
B30: GLS3000 Q90E one-arm antibody (antibody, human IgG1, kappa, L234A L235A, N297A, name in Kabat numbering)
light: B1 light with R58N, Q95E
heavy: B1 heavy
chain: B1 chain
B31: GLS3000 R54Q one-arm antibody (antibody, human IgG1, kappa, L234A L235A, N297A, name in Kabat numbering)
light: B1 light with R58N, R59Q
heavy: B1 heavy
chain: B1 chain
B32: GLS3000 P95G one-arm antibody (antibody, human IgG1, kappa, L234A L235A, N297A, name in Kabat numbering)
light: B1 light with R58N, P100G
heavy: B1 heavy
chain: B1 chain
B33: GLS3000 N53T one-arm antibody (antibody, human IgG1, kappa, L234A L235A, N297A, name in Kabat numbering)
light: B1 light with R58T
heavy: B1 heavy
chain: B1 chain

What follows are binders tested against T1, CD3 epsilon homodimer protein (UniProt P07766 23-126) (assay: SPR Biacore T200, CD3e homodimer on chip, antibody analyte;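 note: CD3 epsilon homodimer amine-coupled on CM4 sensor chip, antibodies injected as analyte at 25 °C in HBS-EP+, ratio ≥0.8 taken as binding retained versus unaltered parent antibody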).
T1 construct: Construct of the homodimer is not described; also called CD3 (CD3 epsilon)
T1 sequence (P07766 23-126): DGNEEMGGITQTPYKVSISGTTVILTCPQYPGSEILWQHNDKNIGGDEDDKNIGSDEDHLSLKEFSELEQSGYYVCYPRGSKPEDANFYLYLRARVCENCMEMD

| ratio of amounts bound (altered form/GLS3000) | Binder |
| --- | --- |
| 1.58 | B1 |
| 0.67 | B2 |
| 0.96 | B3 |
| 0.78 | B4 |
| 0.43 | B5 |
| 0.92 | B6 |
| 0.73 | B7 |
| 0.5 | B8 |
| 0.84 | B9 |
| 0.63 | B10 |
| 0.85 | B11 |
| 0.56 | B12 |
| 0.33 | B13 |
| 0.79 | B14 |
| 0.19 | B15 |
| 0.67 | B16 |
| 0.24 | B17 |

| ratio of amounts bound (altered form/GLS3000) | Binder |
| --- | --- |
| 0.39 | B18 |
| 0.58 | B19 |
| 0.75 | B20 |
| 0.27 | B21 |
| 0.24 | B22 |
| 0.81 | B23 |
| 1.05 | B24 |
| 0.65 | B25 |
| 0.69 | B26 |
| 0.25 | B27 |
| 0.72 | B28 |
| 1.13 | B29 |
| 0.86 | B30 |
| 0.68 | B31 |
| 0.37 | B32 |
| 0.56 | B33 |
